Assay: yeast display, Sf9 membrane polyspecificity reagent, FACS + sequencing; frameworks hold sequencing errors
In short: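 Using colony PCR, genes from sorted yeast display clones were amplified, then sequenced on MiSeq at 2 × 250 and filtered by CDR length. The clones had been stained with 10% biotinylated, detergent-solubilized Sf9 membrane reagent for 1 hour at 4 °C and sorted by FACS into low and high (top ~1%) gates on anti-HA and streptavidin fluorescence. Polyreactivity labels come from the gate of origin.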
For “QVQLVESGGGLVQAGGSLRLSCAASGHFFFYYTMGWYRPAPGKERELVAGITIGGSTNYADSVKGRFTISRDNAKHTVYVQMNSLKPEDTPVYYCNVVKYVYIYSYWEYYYCGQGTQVTVSS”, the “polyreactivity (PSR sort gate)” value was “low polyreactivity”.
In the case of “QVQLVESGGGLVQAGGSLRLSCAASGHIFIRYAMGWYRQAPGKDRELVAASTGSGGSTYYADSVKGRFTISRDYAKNTVYLQMNSLKPEDTAVYYCAARTSKKYVPYDYWGQGTQVTVSS”, the “polyreactivity (PSR sort gate)” value is reported as “high polyreactivity”.
With “QVQLVESGGGLVQAGGSLRLSCAASGHIFVNKAMGWYRQAPGKEREFVAAITSNGARTYYADSVKGRFTISRDNAKNTVYLQMNSLKPEDTAVYYCAKRFARRSQRYDYWGQGTQVTVSS” the “polyreactivity (PSR sort gate)” value was “high polyreactivity”.
With “QVQLVESGGGLVQAGGSLRLSCAASGHTFAYNAMGWYRQAPGKEREFVAAITWSTDNTYYADSVKGRFTISRDYAKYTVYLQMNSLKPEDTAVYYCAVDVYFYYRHYGYWGQGTQVTVSS” the “polyreactivity (PSR sort gate)” value was “low polyreactivity”.
For “QVQLVESGGGLVQAGGSLRLSCAASGHTFRGYDMGWYRQATGKQRELFASISSSGGSTYYADSVKGRFTISRDNAKNTVYLQMNSLKPEDTAVYYCATRDGVVDTEPDQSYAVELDYWGQGTQVTVSS”, the “polyreactivity (PSR sort gate)” value was “low polyreactivity”.
For “QVQLVESGGGLVQAGGSLRLSCAASGHTFTINAMGWYRQAPGKERELVAAITFSGGRTYYADSVKGRFTISRDNAKNTVYLQMNSLKPEDTAVYYCAADNPGGSIYDYWGQGTQVTVSS”, the “polyreactivity (PSR sort gate)” value was “low polyreactivity”.
For “QVQLVESGGGLVQAGGSLRLSCAASGHTLAVNAKGWYRQATGKERELVAAITRSGVTTSYADSVKGRFTISRDNAKNTVYLQMNSLKPEDTAVYYCAAQLDASYLTGGWRRHYNYWGQGTQVTVSS”, the “polyreactivity (PSR sort gate)” value was “low polyreactivity”.
In the case of “QVQLVESGGGLVQAGGSLRLSCAASGHTLGSYAMGWYRQAPGKERELVAAISSRGGTYYADSVKGRFTISRDNAKNTGYFLMNSLKPDDTAVYYWDAVSGSSKMYYWGQGTQVTVSS”, the “polyreactivity (PSR sort gate)” value is reported as “high polyreactivity”.
For “QVQLVESGGGLVQAGGSLRLSCAASGIFDPNAMGWYRQAPGKERELVAAITSGGSTNYADSVKGRFTISRDNAKNTVYLQMNSLKPEDTAVYYCNADSYDEIKYGYWGQGTQVTVSS”, the “polyreactivity (PSR sort gate)” value was “low polyreactivity”.
In the case of “QVQLVESGGGLVQAGGSLRLSCAASGIFDYYGMGWYRQAPGKERELVAAITWNGGSTYYADSVKGRLTISRDNAKNTVYVQMNSLKPEDTAVYYCATTDWYHSPGYDYRGQGTQVTVSS”, the “polyreactivity (PSR sort gate)” value is reported as “low polyreactivity”.
For “QVQLVESGGGLVQAGGSLRLSCAASGIFGRNAMGWYRQAPGKERELVAAITGSGGRTYYADSVKGRFTISRDNAKNTVYLQMNSLKPEDTAVSYCAASIPSTHGYAYDYWGQGNQVTVSS”, the “polyreactivity (PSR sort gate)” value was “high polyreactivity”.
For “QVQLVESGGGLVQAGGSLRLSCAASGIFLGYALGWYRQAPGKERELVAAITSGDSTYYADSVKGRFTISRDNAKNTVYLQMNSLKPEDTAVYYCAKTRYSWPRVWYNYWGQGTQVTVSS”, the “polyreactivity (PSR sort gate)” value was “low polyreactivity”.
For “QVQLVESGGGLVQAGGSLRLSCAASGIFRGYAMGWYRQAPGKERELVAAISWGGGSTYYADSVKGRFTISRDNAKNTVYLQMNSLKPEDTAVYYCIAADFGWDYAYYYWGQGTQVTVSS”, the “polyreactivity (PSR sort gate)” value was “low polyreactivity”.
With “QVQLVESGGGLVQAGGSLRLSCAASGIFRQNAMGWYRQAPGKERELVAGISQSGGSTYYADSVKGRFTISRDNAKNTVYLQMNSLKPEDTSVYYCALVSIWGYDYWGQGTQVTVSS” the “polyreactivity (PSR sort gate)” value was “low polyreactivity”.
In the case of “QVQLVESGGGLVQAGGSLRLSCAASGIFRRYAMGWYRQAPGKERELVAAISSSGGSTDYADSVKGRFTISRDNAKNTVYLQMNSLKPEDTAVYYCNAYDQHGWWCYAYDYWGQGTQVTVSS”, the “polyreactivity (PSR sort gate)” value is reported as “high polyreactivity”.
In the case of “QVQLVESGGGLVQAGGSLRLSCAASGIFRRYAMGWYRQAPGKERELVAAISSSGGSTDYADSVKGRFTISRDNAKNTVYLQMNSLKPEDTAVYYCNAYDQHGWWSYAYDYWGQGTQVTVSS”, the “polyreactivity (PSR sort gate)” value is reported as “high polyreactivity”.
With “QVQLVESGGGLVQAGGSLRLSCAASGIFVRYAMGWYRQAPGKEREMVAAISFSDDSTYYADSVKGRFTISRDNAKNTVYLQMNSLKPEDTAVYYCNARLERTPCLYLYGSWGQVTQVTVSS” the “polyreactivity (PSR sort gate)” value was “low polyreactivity”.
With “QVQLVESGGGLVQAGGSLRLSCAASGIFVTYAMGWYRQAPGTERELVAAIRYSGDSTYYADSVKGRFTISRDNAKNTVYLQMNSLKPEETAVYYCAATKGWSRYEYWGQGTQVTVSS” the “polyreactivity (PSR sort gate)” value was “low polyreactivity”.
With “QVQLVESGGGLVQAGGSLRLSCAASGIFYFYAMGWYRQAPGKERELVAAITSSGGNTTYADSVKGRFTISRDNAKNTVYLQMNSLKPEDTAVYYCNAEAYSYGFDYWGQRTQVTVSS” the “polyreactivity (PSR sort gate)” value was “low polyreactivity”.
For “QVQLVESGGGLVQAGGSLRLSCAASGIICPENAMGWYRQAPGKERELVAAISKSGGRTYYADSVKGRFTISRDNAKNTVYLQMNSLKPEDTAVYYCAKVPYAYSRDRSAEDSWGQATQVTVSS”, the “polyreactivity (PSR sort gate)” value was “high polyreactivity”.
With “QVQLVESGGGLVQAGGSLRLSCAASGIIFAFYAMGWYRQAPGKERELVATISKSGGRTYYADSVKGRFTISRDNAKNTVYLQMNSLNPEDTAVYYCAARIQYAFGADYYWGQGTQVTVSS” the “polyreactivity (PSR sort gate)” value was “low polyreactivity”.
In the case of “QVQLVESGGGLVQAGGSLRLSCAASGIIFAGNTMGWYIQAPWKERELVAAITWSGGSTYYADSVKGRFTISRDNAKNTVYLQMNSQKPEDTAVYYCAAYYGGYGWDDKYDYWGQGTQVTVSS”, the “polyreactivity (PSR sort gate)” value is reported as “low polyreactivity”.
With “QVQLVESGGGLVQAGGSLRLSCAASGIIFAQYTMGWYRQAPGKERELVAAINRNGGSTYYADSVKGRFTISRDNAKNTVYLQMNSLKPEDTAVYYCNADALGFRYDYWGQGTQVTLSS” the “polyreactivity (PSR sort gate)” value was “low polyreactivity”.
With “QVQLVESGGGLVQAGGSLRLSCAASGIIFARYAMGWYRQAPGKERELVAVISGSGGSTYYADSVKGRFTISRDNAKNTVYLQMNSLKPEDTAVYYCNAEFESGHDLDWYDYWGQGTQVTVSS” the “polyreactivity (PSR sort gate)” value was “low polyreactivity”.
With “QVQLVESGGGLVQAGGSLRLSCAASGIIFASNAMGWYIQAPGKERELVATINWTDSTTYYADSVKGRFTISRDNAKNNVYLLMNSLKPEDTAGYYCNAVPHWFYRYGRYDYWGQGTQVTVSS” the “polyreactivity (PSR sort gate)” value was “low polyreactivity”.
In the case of “QVQLVESGGGLVQAGGSLRLSCAASGIIFASNGMGWYRQAPGKERELLAAISSGGSTNYADSVKGRFTISRDNAKNTVYLQMNSLKPEDTAVYYCSTSGPQYYSRNFDYWGLGTQVTVSS”, the “polyreactivity (PSR sort gate)” value is reported as “low polyreactivity”.
In the case of “QVQLVESGGGLVQAGGSLRLSCAASGIIFASYAMGWYRQAPGKERELVAAITWDGDSTYYADSVKGRFSISRDNAKNTVYLQRNSLKPEDTAVYYCAADGVYVGFYGYDYDYWGQGTQVTVSS”, the “polyreactivity (PSR sort gate)” value is reported as “low polyreactivity”.
With “QVQLVESGGGLVQAGGSLRLSCAASGIIFAVYTMGWYRQARGKERELVAALSSGGSTYYADSVQGRFTISRDNAKNTVYLQMNSLKPEDTAVYYCNAQYFWLWLTYDFDYWGQGTQVTVSS” the “polyreactivity (PSR sort gate)” value was “high polyreactivity”.
With “QVQLVESGGGLVQAGGSLRLSCAASGIIFAWYAMGWYRQAPGKERELLAAISWSGGSTYYADSVKGRFTISRDNAKNTVYLQMNILKPEDSAVYYCAPFPRRQGKYDYWGKGTQVTVSS” the “polyreactivity (PSR sort gate)” value was “high polyreactivity”.
In the case of “QVQLVESGGGLVQAGGSLRLSCAASGIIFAWYAMGWYRQAPGKERELVAAINWSGGSTYYADSVKGRFTISRDNAKNTVYLQMNSLKPEDTAVYYCNADFQDRTDDYDYWGQGTQVTVSS”, the “polyreactivity (PSR sort gate)” value is reported as “low polyreactivity”.
With “QVQLVESGGGLVQAGGSLRLSCAASGIIFAWYAMGWYRQAPGKERELVAAISWSGGSTYYADSVKGRFTISRDNAKNTVYLQMNSLKPEDTAVYYCAADSDYGGYDYWGQGTQVTVSS” the “polyreactivity (PSR sort gate)” value was “high polyreactivity”.
With “QVQLVESGGGLVQAGGSLRLSCAASGIIFAWYAMGWYRQAPGKERELVAAISYSGGTTYYADSVKGRFTISRDNAKNTVYLQMNSLKPEDTAVYYCAARLHHFFTYDYWGQGTQVTVSS” the “polyreactivity (PSR sort gate)” value was “low polyreactivity”.
With “QVQLVESGGGLVQAGGSLRLSCAASGIIFCDNAMGWYRHAPGKERELVAAITIGGTSTYYADSVKGRFTISRDNAKNTVYLQMNSLKPEDTAVYYCAKTILYDCDYWGQGTQVTVSS” the “polyreactivity (PSR sort gate)” value was “low polyreactivity”.
With “QVQLVESGGGLVQAGGSLRLSCAASGIIFDCNAMGCYRQAPGKERELVAANTSSTDSTYYADSVKGRFTISRDNAKNTVYLQMNILKPEDTAVYYCAAAYPSKTFDYWGQGTHVTVSS” the “polyreactivity (PSR sort gate)” value was “low polyreactivity”.
With “QVQLVESGGGLVQAGGSLRLSCAASGIIFDDYAMGWYRQAPGKERELVAAIRSGVSTNYADSVKGRFTISRDNAKNTVYLQMNSLKPEDTAVYYGAARNTAPYFTEYDYWGQGTQVTVSS” the “polyreactivity (PSR sort gate)” value was “low polyreactivity”.
With “QVQLVESGGGLVQAGGSLRLSCAASGIIFDDYAMGWYRQAPGKERELVAAISVSGGSTYNADSVKGRFTISRDNAKNTVYLQMNSLKPEDTAVYYCAARLIVGRFLRYDYWGQGTQVTVSS” the “polyreactivity (PSR sort gate)” value was “high polyreactivity”.
For “QVQLVESGGGLVQAGGSLRLSCAASGIIFDDYAMGWYRQAPGKERELVAAITDSGGSTYYADSVKGRFTISRDNAKNTVYLQMNSLKPEVTAVYYCAARTQRRVNRVGYRSNYYYWGQGTQVTVSS”, the “polyreactivity (PSR sort gate)” value was “low polyreactivity”.
In the case of “QVQLVESGGGLVQAGGSLRLSCAASGIIFDEYAMGWYRQAPGKERELVAAITWSGGSTYYADSVKGRFTISRDNAKNTVYLQMNSLKPEDTAVYYCNAVQSDEIAYGDTRLDYWGQGTQVTVSS”, the “polyreactivity (PSR sort gate)” value is reported as “low polyreactivity”.
In the case of “QVQLVESGGGLVQAGGSLRLSCAASGIIFDGNAMGWYRQAPGKERELVASITSDSSTNYADSEKGRFTISRDNAKNTVYLQMNSLKPADTAVYYCAADHWIAPRRDYWGQGTQVTVSS”, the “polyreactivity (PSR sort gate)” value is reported as “low polyreactivity”.
In the case of “QVQLVESGGGLVQAGGSLRLSCAASGIIFDHYAMGWYRKAPGKERELVAAITSGGRTYYADSVKGRFTISRDNAKKTVYLQMNSLKPEDTAVYYCNARFRSSARLAYYYWGQGTQVTVSS”, the “polyreactivity (PSR sort gate)” value is reported as “high polyreactivity”.
In the case of “QVQLVESGGGLVQAGGSLRLSCAASGIIFDLYTKGWYRQAPGKEREFVATINWGGGNTYYADSVKGRFTISRDNAKNTVYLQMNSLKPDDTAVYYCAAAYTWYGYSQAYYYWGQGSQVTVSS”, the “polyreactivity (PSR sort gate)” value is reported as “low polyreactivity”.
In the case of “QVQLVESGGGLVQAGGSLRLSCAASGIIFDSNVMGWYRQAPGKERELVAAISRSGSRTYYADSVKGRFTISRDNSKNTVYLEMNSLKPEDTAVYYCATDSHTADEYEHWGQGTQVTVSS”, the “polyreactivity (PSR sort gate)” value is reported as “high polyreactivity”.
With “QVQLVESGGGLVQAGGSLRLSCAASGIIFDTNDIGWYRLGPGKERELVATITQRGGTTYYADSVKGRFTISRDNATNTVYLQMNSLKPEDTAVYYCDADRRSKYDYWGQGTQVSVSS” the “polyreactivity (PSR sort gate)” value was “low polyreactivity”.
